Laboratory results taken from the supplement of paper PMC10567573.
± gives the standard deviation.

Assay: protein stability index of a GFP-peptide fusion (GPS, HEK-293T) (PSI 1-6); higher = more stable
Settings: c terminus: a fixed tail appended
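Also: 24-mer peptide tiles fused after GFP, lentivirally expressed, FACS-sorted into six equal bins by GFP/DsRed ratio, decoded by Illumina sequencing, PSI is the read-weighted mean bin number.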

Sequence	protein stability index (treatment: DMSO)	protein stability index (treatment: MLN4924 1 uM, 8 h)
FPDGDDEFDSPHEDIVFETDHILE [STX11]	5.19 ± 0.25	5.29 ± 0.16
APRLAVAVPAVTSADSQFSQTTQA [LYSMD4]	4.76 ± 0.16	4.81 ± 0.19
RARVKEKFSPEAFTEQLYRYVTKL [ALG2]	2.36 ± 0.48	2.05 ± 0.46
DEEHMEEAITSASFLEQIMAPLQP [FAM189A2]	4.74 ± 0.18	4.96 ± 0.19
VAACAQTVVSLAAAGQPTPPTSPE [CEBPD]	5 ± 0.78	5.29 ± 0.33
EFLGNRSVILNHMAREHAFNIGLP [ZNF277]	2.21 ± 0.19	2.26 ± 0.2
FLFPIDISLVKREHDFLDRDAIEA [DLC1]	2.66 ± 0.57	2.72 ± 0.31
ETKLHLLRQEMVNLRATDVRLMRQ [LURAP1L]	2.96 ± 0.34	3.17 ± 0.16
LQRPSYKFFFKSMDDDFGVVKEEI [DVL3]	2.76 ± 0.29	2.85 ± 0.35
RPSSPRPQKASPNGSISSAGNSSR [BTBD10]	4.97 ± 0.21	4.94 ± 0.3
YAFVGDYSGQITLLKLEQNTCSVI [WDFY1]	2.94 ± 0.65	2.72 ± 0.58
GLHLTDPSQRLVQNCLWTLRNLSD [CTNNB1]	2.29 ± 0.31	2.45 ± 0.27
KVLHEDKQTREQLHSISDSVLFLQ [TRIM29]	3.46 ± 0.16	3.58 ± 0.27
LPVDDDSDLNVVASFDRRGEYIYT [RBBP5]	3.41 ± 0.25	3.7 ± 0.28
VQSIELQRPRFITSGGSNIIYVAS [VPS39]	2.35 ± 0.44	2 ± 0.22
FLESQGIELNPPEKMALDPYTELR [EFHC1]	3.79 ± 0.41	3.89 ± 0.35
SLFVLDQNDNAPEILYPALPTDGS [PCDHGA10]	3.69 ± 0.33	3.84 ± 0.32
GLLALAIGLWGLAVKGSLGSDLGG [TSPAN10]	4.49 ± 0.53	3.4 ± 0.37

Sequence	protein stability index (treatment: DMSO)	protein stability index (treatment: MLN4924 1 uM, 8 h)
TLHNAQTQEPIFTFTASFSGKVFP [TRIM15]	2.49 ± 0.23	2.56 ± 0.3
LGVLHPNTKLRQAERLFENQLVGP [APMAP]	2.57 ± 0.32	3.16 ± 0.24
TLTELRRTVQSLEIDLDSMRNLKA [KRT18]	3 ± 0.5	3.06 ± 0.51
GDTPIRKKEELLFDDGDDIMATLG [FBF1]	4.35 ± 0.18	4.47 ± 0.29
SESGSLGNSSGSDVTSLSSQLPDT [ISL2]	5.43 ± 0.056	5.41 ± 0.14
SHHHHQSRGACTSHDPQSSRGSRR [KCNA4]	5.11 ± 0.26	5.13 ± 0.15
EDEDPEEMPKSSDFLIHPPERSDL [PCDHGC5]	5.41 ± 0.13	5.4 ± 0.24
DENERDLMHIAHIAELLEVFDLRM [RHOBTB2]	2.63 ± 0.11	2.7 ± 0.34
FSVLEGEKNNHRAKDLRAPPEQGK [SOAT1]	5.08 ± 0.26	4.92 ± 0.18
QVQSLITNVESQLAEIRSDLERQN [KRT33B]	3.85 ± 0.22	3.91 ± 0.1
GSDYVNANYIDGYRKQNAYIATQG [PTPRD]	3.51 ± 1.2	3.46 ± 0.28
QDSKEMKQLLDSKIGFEIGIENEE [ZNF449]	5.35 ± 0.37	5.37 ± 0.47
EHGLHTKYIHRMMQIEFIKQGSMN [TRAF3IP2]	2.3 ± 0.2	2.5 ± 0.26
VMLGAGGVGKSAMTMQFISHRFPE [RIT1]	2.33 ± 0.34	2.12 ± 0.34
GSLCAIAGVLTIALPVPVIVSNFN [KCNA4]	3.33 ± 0.42	3.13 ± 0.36
RFYYQALSVAPQIGMPFNQLGTLA [SMG5]	2.63 ± 0.6	2.55 ± 0.61
LHTFTPAGRPRAERRPRRVEAERP [FAM189A2]	4.45 ± 0.21	4.45 ± 0.31
MRVGPVRSAMSGASQPRGPALLFP [TRIB1]	3.48 ± 0.65	3.08 ± 0.24
